From article doi:10.1101/2023.10.13.562155 (bioRxiv, 2023)

Target: T1, human p75^NTR JXT domain (K273-D332) (human, UniProt P08138 273-332)
T1 sequence (looked up): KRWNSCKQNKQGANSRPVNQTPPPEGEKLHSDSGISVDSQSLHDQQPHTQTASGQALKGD
Assay: NMR titration

binding result: binds
B1: RhoGDI NTD^S34D (A2-A60) (domain or fragment, human, UniProt P52565 2-60, looked up)
chain: AEQEPTAEQLAQIAAENEEDEHSVNYKPPAQKDIQEIQELDKDDESLRKYKEALLGRVA
